B1: RING1 and YY1-binding protein (Homo sapiens), Q8N488 (parent)
chain: MTMGDKKSPTRPKRQAKPAADEGFWDCSVCTFRNSAEAFKCSICDVRKGTSTRKPRINSQLVAQQVAQQYATPPPPKKEKKEKVEKQDKEKPEKDKEISPSVTKKNTNKKTKPKSDILKDPPSEANSIQSANATTKTSETNHTSRPRLKNVDRSTAQQLAVTVGNVTVIITDFKEKTRSSSTSSSTVTSSAGSEQQNQSSSGSESTDKGSSRSSTPKGDMSAVNDESF

Variants of: B1
Conditions: with ubc_human UBC

effect of a mutation on the interaction	Variant
disrupting interaction	T31A;F32A

Variants of: B1
Conditions: with ubc_human UBC
Remark: another data set of the same source

effect of a mutation on the interaction	Variant
disrupting interaction	T31A;F32A

Variants of: B1
Conditions: with RING1, Q06587-2
RING1, Q06587-2, sequence (Q06587 30-406): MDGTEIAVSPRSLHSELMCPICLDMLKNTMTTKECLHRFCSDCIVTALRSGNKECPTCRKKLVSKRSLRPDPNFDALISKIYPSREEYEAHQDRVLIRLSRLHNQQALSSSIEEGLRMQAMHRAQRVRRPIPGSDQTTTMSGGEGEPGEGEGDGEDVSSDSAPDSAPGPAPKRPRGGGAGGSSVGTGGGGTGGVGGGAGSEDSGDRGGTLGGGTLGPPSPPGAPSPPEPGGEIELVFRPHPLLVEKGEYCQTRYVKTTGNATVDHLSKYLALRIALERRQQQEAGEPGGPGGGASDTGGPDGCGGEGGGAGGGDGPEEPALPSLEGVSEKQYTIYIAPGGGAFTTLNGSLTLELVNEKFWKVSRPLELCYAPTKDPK

effect of a mutation on the interaction	Variant
disrupting interaction	T31A;F32A

From IntAct's records for PubMed 17070805
